In publication PMC12677587, “UHRF1 Controls the Timing of RAD51 Removal During DNA Damage Repair Through Suppressing RFWD3” (Advanced Science, 2025):
Blank lines part the entries; values can stand above or below the molecule they belong to.

Experiments:
RAD51 = RAD51 (UniProt Q06609); experiment: co-IP of FLAG-UHRF1 and RAD51-HA; settings: reference: wild type; sites S661
His-UHRF1 [1] = target: T1, His-UHRF1 (UniProt Q96T88-1 1-793); experiment: pull-down; GST pull-down: purified GST-RFWD3 on Glutathione resin, purified His-tagged UHRF1 proteins, 3 h at 4 °C in BCA buffer (20 mM Tris-HCl pH 7.4, 100 mM NaCl); washes with 300 mM NaCl; western blotting; settings: both partners purified
T1 construct: UHRF1; last residue R793; source: E. coli BL21(DE3), purified (Ni-NTA agarose)
T1 sequence (looked up): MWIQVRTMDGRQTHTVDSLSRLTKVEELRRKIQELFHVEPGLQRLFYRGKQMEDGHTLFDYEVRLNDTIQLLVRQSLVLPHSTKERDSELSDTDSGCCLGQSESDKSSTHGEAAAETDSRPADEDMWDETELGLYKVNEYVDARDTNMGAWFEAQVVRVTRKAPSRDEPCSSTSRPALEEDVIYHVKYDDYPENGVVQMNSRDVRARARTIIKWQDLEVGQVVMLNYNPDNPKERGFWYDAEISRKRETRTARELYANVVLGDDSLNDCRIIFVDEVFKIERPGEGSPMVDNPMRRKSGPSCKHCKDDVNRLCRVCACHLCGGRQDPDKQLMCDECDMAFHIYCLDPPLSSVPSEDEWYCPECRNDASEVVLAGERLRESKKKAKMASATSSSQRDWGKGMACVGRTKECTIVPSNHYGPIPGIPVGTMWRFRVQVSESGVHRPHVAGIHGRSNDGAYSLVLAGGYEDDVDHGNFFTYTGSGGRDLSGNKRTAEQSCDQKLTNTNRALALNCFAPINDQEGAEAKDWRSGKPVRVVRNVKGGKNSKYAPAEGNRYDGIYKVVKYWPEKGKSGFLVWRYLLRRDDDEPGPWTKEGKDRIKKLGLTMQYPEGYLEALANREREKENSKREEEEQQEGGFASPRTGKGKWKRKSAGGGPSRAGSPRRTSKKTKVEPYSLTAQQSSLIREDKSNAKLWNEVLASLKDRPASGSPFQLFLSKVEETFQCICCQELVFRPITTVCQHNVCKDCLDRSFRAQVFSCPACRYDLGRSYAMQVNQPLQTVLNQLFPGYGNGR

His-UHRF1 [2] = target: T1, His-UHRF1; experiment: pull-down; GST pull-down: GST-RFWD3 on Glutathione resin precipitating His-UHRF1 with His-RAD51 or His-RAD51^R254Q added; His-tagged proteins detected by western blotting; settings: both partners purified
GST-UHRF1 = target: T2, GST-UHRF1 (UniProt Q96T88-1 1-793); experiment: pull-down; His pull-down: purified His-RAD51 on Ni-chelated beads, GST-UHRF1 with increasing amounts of GST-RFWD3; Binding Buffer A (50 mM Tris-HCl pH 7.5-8.0, 50 mM NaCl), washes with 20 mM imidazole; western blotting; settings: both partners purified
T2 construct: UHRF1; source: E. coli BL21(DE3), purified (Glutathione resin)
T2 sequence (looked up): T1 sequence (looked up)

binding against the reference (RAD51): stronger
Molecule: UHRF1 (from UniProt Q96T88) S661A

binding result (His-UHRF1 [1]): binds
B1: GST-RFWD3 (natural protein, UniProt Q6PCD5 1-774, looked up)
chain: MAHEAMEYDVQVQLNHAEQQPAPAGMASSQGGPALLQPVPADVVSSQGVPSILQPAPAEVISSQATPPLLQPAPQLSVDLTEVEVLGEDTVENINPRTSEQHRQGSDGNHTIPASSLHSMTNFISGLQRLHGMLEFLRPSSSNHSVGPMRTRRRVSASRRARAGGSQRTDSARLRAPLDAYFQVSRTQPDLPATTYDSETRNPVSEELQVSSSSDSDSDSSAEYGGVVDQAEESGAVILEEQLAGVSAEQEVTCIDGGKTLPKQPSPQKSEPLLPSASMDEEEGDTCTICLEQWTNAGDHRLSALRCGHLFGYRCISTWLKGQVRKCPQCNKKARHSDIVVLYARTLRALDTSEQERMKSSLLKEQMLRKQAELESAQCRLQLQVLTDKCTRLQRRVQDLQKLTSHQSQNLQQPRGSQAWVLSCSPSSQGQHKHKYHFQKTFTVSQAGNCRIMAYCDALSCLVISQPSPQASFLPGFGVKMLSTANMKSSQYIPMHGKQIRGLAFSSYLRGLLLSASLDNTIKLTSLETNTVVQTYNAGRPVWSCCWCLDEANYIYAGLANGSILVYDVRNTSSHVQELVAQKARCPLVSLSYMPRAASAAFPYGGVLAGTLEDASFWEQKMDFSHWPHVLPLEPGGCIDFQTENSSRHCLVTYRPDKNHTTIRSVLMEMSYRLDDTGNPICSCQPVHTFFGGPTCKLLTKNAIFQSPENDGNILVCTGDEAANSALLWDAASGSLLQDLQTDQPVLDICPFEVNRNSYLATLTEKMVHIYKWE
notes: RFWD3 (ring finger and WD repeat domain 3); source: E. coli BL21(DE3), purified (Glutathione resin)

binding result (His-UHRF1 [2]): binds
binding result (GST-UHRF1): binds
B2: His-RAD51 (natural protein, UniProt Q06609 1-339, looked up)
chain: MAMQMQLEANADTSVEEESFGPQPISRLEQCGINANDVKKLEEAGFHTVEAVAYAPKKELINIKGISEAKADKILAEAAKLVPMGFTTATEFHQRRSEIIQITTGSKELDKLLQGGIETGSITEMFGEFRTGKTQICHTLAVTCQLPIDRGGGEGKAMYIDTEGTFRPERLLAVAERYGLSGSDVLDNVAYARAFNTDHQTQLLYQASAMMVESRYALLIVDSATALYRTDYSGRGELSARQMHLARFLRMLLRLADEFGVAVVITNQVVAQVDGAAMFAADPKKPIGGNIIAHASTTRLYLRKGRGETRICKIYDSPCLPEAEAMFAINADGVGDAKD
notes: RAD51 recombinase; also called purified RAD51; source: E. coli BL21(DE3), purified (Ni-NTA agarose)
